From publication doi:10.1101/2023.05.09.540036 come the findings set out here.

*1 amine or outer side, *2 acyl side, *3 side chain or, on linkers, in order; H or OH if unused. Bridges are numbered along the chain shown (N, C = ends). Primed or numbered codes have the meaning given here. The star is where a group is joined. PEG3′ = three-unit polyethylene glycol linker; NOTA = O=C(O)CN1CCN(CC(=O)O)CCN(CC(=O)*)CC1; TBMB = c1c(C[*:1])cc(C[*:3])cc1C[*:2]

The term Kd denotes the concentration at which binding is half-saturated.

The target of the experiment is T1, His-Tagged human CD38 recombinant protein (human) (UniProt P28907).
T1 sequence (P28907 whole entry, looked up): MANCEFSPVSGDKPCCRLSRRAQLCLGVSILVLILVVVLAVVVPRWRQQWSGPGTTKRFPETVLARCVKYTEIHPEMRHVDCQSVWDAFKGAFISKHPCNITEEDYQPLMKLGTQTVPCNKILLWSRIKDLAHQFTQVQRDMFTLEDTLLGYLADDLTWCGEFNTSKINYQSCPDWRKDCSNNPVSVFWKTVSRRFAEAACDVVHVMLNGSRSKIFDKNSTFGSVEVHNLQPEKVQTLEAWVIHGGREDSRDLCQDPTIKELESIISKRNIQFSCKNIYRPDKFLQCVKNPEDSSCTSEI
In words: SPR. In general terms: SPR reads the build-up and loss of mass on a sensor chip optically.

For the molecule {NOTA-PEG3′}-ACVPCADFPIWYC-NH2 (linker 2-5-13 via TBMB) [AJ206 (NOTA-conjugated bicyclic peptide)], the dissociation constant Kd worked out at 19.1 nM.
